From PMC11420289, “IBR1, a novel endogenous IFIH1‐binding dsRNA, governs IFIH1 activation and M1 macrophage polarisation in ARDS”

T1: IFIH1-WT-Flag (UniProt Q8R5F7 1-1025)
T1 sequence: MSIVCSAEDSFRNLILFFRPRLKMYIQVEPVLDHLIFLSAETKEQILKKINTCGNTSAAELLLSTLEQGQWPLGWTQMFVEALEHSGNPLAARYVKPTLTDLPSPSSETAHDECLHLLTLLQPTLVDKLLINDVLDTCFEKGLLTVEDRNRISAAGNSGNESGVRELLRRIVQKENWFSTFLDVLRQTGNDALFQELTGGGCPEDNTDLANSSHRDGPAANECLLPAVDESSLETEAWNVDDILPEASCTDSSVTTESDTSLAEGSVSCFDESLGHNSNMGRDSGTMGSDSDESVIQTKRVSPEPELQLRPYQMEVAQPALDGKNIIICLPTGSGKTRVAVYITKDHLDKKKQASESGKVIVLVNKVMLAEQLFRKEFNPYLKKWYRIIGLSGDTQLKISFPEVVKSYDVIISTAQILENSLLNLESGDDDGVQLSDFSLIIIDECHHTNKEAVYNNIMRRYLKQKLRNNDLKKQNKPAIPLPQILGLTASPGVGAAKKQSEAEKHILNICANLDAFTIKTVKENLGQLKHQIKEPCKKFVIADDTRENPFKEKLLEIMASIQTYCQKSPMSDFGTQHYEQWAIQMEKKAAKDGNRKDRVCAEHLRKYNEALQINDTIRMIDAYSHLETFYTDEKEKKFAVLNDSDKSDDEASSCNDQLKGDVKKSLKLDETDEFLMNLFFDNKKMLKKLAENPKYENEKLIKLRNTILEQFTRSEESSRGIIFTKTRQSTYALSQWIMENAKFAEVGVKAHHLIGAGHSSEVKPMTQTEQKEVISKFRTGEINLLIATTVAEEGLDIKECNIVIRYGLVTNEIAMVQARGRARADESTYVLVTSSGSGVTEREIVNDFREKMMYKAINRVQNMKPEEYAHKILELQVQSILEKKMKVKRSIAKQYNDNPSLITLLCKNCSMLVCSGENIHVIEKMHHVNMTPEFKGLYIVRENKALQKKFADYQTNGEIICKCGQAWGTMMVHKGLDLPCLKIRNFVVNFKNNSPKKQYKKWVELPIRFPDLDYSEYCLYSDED

B1: IBR1-M2 (ssRNA)
RNA: UGUAUUUUCUCCUUAUAAUCACUCCCUCCCGGGGCAUGUAAUUAAUUUCCUGAUGGAUUACUCACACGGUCUUGAAGAUGCAAUGUCAGCUAUUUAGGCUGUGCUAGGACUCAAUUACAACAACAUAUGCAUUAAGACAGGAACUGGCAAGCCGGGACUACAGCAACUACAGGGCUGGUGCUUCCCAACCGCUGGGCUAUAAUCUAUGAAACUGAGCCGGGAUCCAGCCAAUCAGUUAGCUAGCUCCUCAUAACAGGUCUAACUGGCUCUGGACAGCUAAGGGCUGCGCUGGAAC
B2: IBR1-M3 (ssRNA)
RNA: GUUCCAGCGCAGCCCUUA

Target: T1, IFIH1-WT-Flag
Test: competition; EMSA, 50 pmol cold RNA vs biotin-IBR1-WT; EMSA: 20 mM HEPES pH 7.5, 150 mM NaCl, 1.5 mM MgCl2, 2 mM DTT, 2 mM ADPCP (so in the source), 10 min at room temperature, BisTris native gel
Details: protein: recombinant; tags: Flag; His

Binder | binding result
B1 | no binding
B2 | no binding
